From the supplement of paper PMC9170038

System: K4 kissing-loop RNA reporter
Assay: apparent KD of K4 kissing-loop reporter; higher = weaker reporter binding
Settings: Eterna round: R107
Protocol: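 RNA-MaP round R107: designed RNA switches with theophylline, tryptophan, arginine or FMN aptamers are transcribed on-chip within common flanks. They are titrated with a labelled K4 kissing-loop RNA reporter in RNA-MaP buffer (100 mM Tris pH 7.5, 80 mM KCl, 4 mM MgCl2), without ligand or with the indicated ligand. Median apparent KD per design.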

[1] = input ligand: theophylline 20 uM
[2] = input ligand: tryptophan 2.4 mM
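Note: bound reporter read as fluorescence of individual clusters on recovered sequencing chips by microscopy, with normalized cluster intensities fitted with a binding model.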

| Sequence | apparent KD of K4 kissing-loop reporter (input ligand: FMN 200 uM) | apparent KD of K4 kissing-loop reporter (input ligand: arginine 13.2 mM) | apparent KD of K4 kissing-loop reporter (input ligand: none) | apparent KD of K4 kissing-loop reporter [1] | apparent KD of K4 kissing-loop reporter [2] |
| --- | --- | --- | --- | --- | --- |
| GGUAGCAUGGCGGCCGCCACUCGCUAGUGAUGUUAGCGGGAUGAGACAAAGGACAUAACUUUAUCGAGGACCGGGCCAUGCUACC | 88.2 nM | 66.5 nM | 75.8 nM | 62.2 nM | 92.9 nM |
| GGUAGCAUGGCGGCCGCCACUCUUCAUUAGUGAUGUUAAUGCCGAGUGCGCUAACUCCAACAGGAGAGGACCGGGCCAUGCUACC | 532 nM | 445 nM | 501 nM | 760 nM | 98.8 nM |
| GGUAGCAUGGCGGCCGCCACUCUUCAUUAGUGAUGUUAAUGCCGAGUGCGCUAACUCCGCCAGGAGAGGACCGGGCCAUGCUACC | 397 nM | 302 nM | 406 nM | 407 nM | 185 nM |
| GGUAGCAUGGCGGCCGCCACUUAAUCACUCCAGGAUGAGGAAUAUAAGCAGUGAUGUUGCUAAGUAAGGACCGGGCCAUGCUACC | 269 nM | 271 nM | 327 nM | 354 nM | 201 nM |
| GGUCGCCUGAGCAGUGAUGUUGCAAGGGAAGGAGCGCGUUUUUUCGCAGGUAGGUCGCCCAAAUAAUAAGUUAAACUAGGCGACC [4.)] | 221 nM | 144 nM | 149 nM | 316 nM | 205 nM |
| GGUGAUGAGCACGAUACCAGCCUCGGAGCCAGUGAUGUUGGCCCAAUUUAAAAUAAGAUAGGCCCUUGGCAGCGUGACGAUGGCU [Rainle] | 727 nM | 727 nM | 711 nM | 466 nM | 643 nM |
| GGUGCUGUUUGUGCCGCCUUCCUCGUUCCUCGAGGACCGGUACGGCCGCCACUCGAGUGAUGUUUGGGUAGCGAUCCCUGCUAGC [Bdazzled - #14 Exc. Tryptophan A] | 470 nM | 538 nM | 1370 nM | 566 nM | 413 nM |
| GGUUCUGUUUUAGGUUUAGUGAUGUUGAAUCGAGGACCGGUACGGCCGCCACUCGGUGACGUCGUAACUUUGGAGGUCCUAACCA [theeternabot_exclusion_KL_Trp_A_47] | 764 nM | 642 nM | 665 nM | 658 nM | 438 nM |
| GUAAGACCGGGACUCCAGUGAUGUUGGAGGCAGGAUAUCCAGUCGAGGAGAAGGGCCAGGGAUAUCGAGCUGCUCGGUUCGUAGU [Rerareatra] | 81.8 nM | 101 nM | 103 nM | 107 nM | 66.5 nM |
| GUACCUUGGAAACAAGGACAGCUAACCGAAGGAGCGCGUGAAAACGCAGGUAGGUCGCGGUAGCGGAGUGAUGUUCCGCGAGAGC [Same State Arginine A GF 19] | 114 nM | 85.8 nM | 88.8 nM | 103 nM | 108 nM |
| GUACGCUCCCGAGUGAUGUUCGGUAAUCGCGAGGAUAUCGCUUUUGCGAGAAGGCGCGGAAUGAGGAAACUCGUUCUGAGUGUAC [FMN A 25] | 234 nM | 191 nM | 253 nM | 212 nM | 233 nM |
| GUACGCUUCCGAGUGAUGUUCGGAAAUCGCUAGGAUAUCGCUUUUGCGAGAAGGAGCGCAAUGAGGAAACUCGUUGUUAGUGUAC [FMN A 27] | 164 nM | 146 nM | 177 nM | 171 nM | 163 nM |
| GUAGACAGACUGCAAGCCUAGUCUACAGACUAGGAUAUCAGGAAACUGAGAAGGAGUCUACUUGCAGUGAUGUUGCAAGAAUAAU [[F]''-[K]'-[F]'-[F1]-[F2]-[K1]-[K2]_Design4] | 146 nM | 126 nM | 121 nM | 111 nM | 119 nM |
| GUAUAUCGAACUGAUACCAGAGAAUAUAGCAGUGAUGUUGCAUAUAUGAAUAAGACUCGACUCCCUUGGCAGCGGGAAGAUAUAC [On purpose 2] | 132 nM | 169 nM | 137 nM | 166 nM | 142 nM |
| GUAUCGCUAGGAGGAUAUUCCGUUUUUCAUAGAAAUGGCUAUGCGGAGUGAUGUUCCGAUUUACCGGAAGAAGGCCUAGUGAUAC [FMN B 23] | 106 nM | 132 nM | 149 nM | 142 nM | 142 nM |
| GUCCAAACACAGUGAUGUUGUGAAUAUGAAGGAGCGGACGAAAGUCCAGGUAGGUCGCAUAAAGGACACCUACGAAAAGUAGGAA [#SwitchBubble 5 #K4Early] | 172 nM | 201 nM | 228 nM | 222 nM | 159 nM |
| GUCCCAGUGAUGUUGGUAGGCGAGCGGGAUACCAGCCAAGACUCAGGCCCUUGGCAGCCCACAUAUCCCACGUAGGGAUUAGCUC [Same State - Theophylline A (Freestyle 19)] | 212 nM | 198 nM | 223 nM | 256 nM | 173 nM |
| GUGCAAAGCACCGGCACGAGCAGCCUAAAGGAGGAUAUGACGAAAGUCAGAAGGCCUAGUGAUGUUAGGCCUUGCUUGAGUCGAA [Omei KL FMN A Exc B v1] | 131 nM | 137 nM | 169 nM | 183 nM | 151 nM |
| GUGCGCGCGGCGGCCGCCACUCGCAUGAGAGUGAUGUUCUCGGGACUGACGCAAGUCAGUCAUGUGAGGACCGGGCCGGGCUGCG [#2 Same State - Tryptophan B Attempt #12 (HarryS)] | 1060 nM | 1640 nM | 447 nM | 769 nM | 423 nM |
| GUGUAAGUGAUGUUUGCACACACGUCGGAUACCAGAGACUUUAGCCUCCCUUGGCAGCCGCCGGCCAUAAGAGCAAGUCGAUUUA [theeternabot_sameState_KL_Theo_A_20] | 197 nM | 186 nM | 210 nM | 194 nM | 176 nM |
| GUUACGCAUGGAAGGAGCGCGAUAAUAUUAAGUGAGUGAUGUUCACAAAGAAAAUAAAUAACGCAGGUAGGUCGCCAUGUGUAAC [Ex Arginine B K4 4] | 79.3 nM | 93.1 nM | 80.8 nM | 97.8 nM | 81.8 nM |
| GUUACGCAUGGAAGGAGCGCGAUUAAAUUUAGUGAGUGAUGUUCACAAAAUAAAACUAAAACGCAGGUAGGUCGCCAUGUGUAAC [Ex Arginine B K4 2] | 171 nM | 196 nM | 188 nM | 198 nM | 159 nM |

| Sequence | apparent KD of K4 kissing-loop reporter (input ligand: FMN 200 uM) | apparent KD of K4 kissing-loop reporter (input ligand: arginine 13.2 mM) | apparent KD of K4 kissing-loop reporter (input ligand: none) | apparent KD of K4 kissing-loop reporter [1] | apparent KD of K4 kissing-loop reporter [2] |
| --- | --- | --- | --- | --- | --- |
| GUUGAUCAUGGAAGGAGCGCCCAUUGUCGACACGAGUGAUGUUCGUGUCGUUGAUUACGAGGGCAGGUAGGUCGCCGUGUGCUUU [Rabele] | 149 nM | 109 nM | 124 nM | 116 nM | 119 nM |
| GUUUGGCGGACGGCCGCCACUCGGACGAGUCACAGUGAUGUUGUGGUUUGCCAGUCGACUUCAUCGAGGACCGGGUUUGUCGGGC [Exclusion Tryptophan B GF 20] | 363 nM | 276 nM | 395 nM | 314 nM | 379 nM |
| UAACAGGCCCUCACCGUCUUAUUUACAGACCGAGGACCGGUACGGCCGCCACUCGUGAAGUGAUGUUUCAAACAAGCGGUAGGAU | 721 nM | 467 nM | 685 nM | 480 nM | 328 nM |
| UAAUAAAUUCCAGCGAUAUCGCUCUUCGAAGGAGCGGACGAAAGUCCAGGUAGGUCGCGAAGAGUGAUGUUCUUUGCGGCGCUGG [Omei KL Arginine A Exc A v4] | 207 nM | 180 nM | 262 nM | 320 nM | 226 nM |
| UAAUUUAUCGCAGGAUAUAGCCAUAAACCGGUCCUAAGGGACCUUCUGGGCAGUGAUGUUGCCCGGCUAGAAGGGCGAGUUCACC [Anenlagema] | 115 nM | 105 nM | 116 nM | 103 nM | 105 nM |
| UAAUUUAUGUCUUUAAUAUAAUAAUCAGAUACCAGUGAUUUAUGACACCCUUGGCAGCUGUAUAGAGUGAUGUUCUUAUGCUUAA [JR_ExcTheophyA_Sub011] | 247 nM | 324 nM | 278 nM | 375 nM | 179 nM |
| UACAAACGUAGUGAUGUUACGUACUCUGAUACCAGACAACUCUAAGUCCCUUGGCAGCAGUCAUUUUGCUUAUUAUUUUCUCAAA [JR_ExcTheophyA_Sub018] | 86.5 nM | 102 nM | 92 nM | 98.5 nM | 75.2 nM |
| UAGACCUACUCAGGAUAUCCGCAGUGAUGUUGCGGUUGGCCUGAGCGACAUGAAAAUCUUACUAAAGGAGAAGGGAGAGGGUUAC [Ratiteus] | 123 nM | 79.2 nM | 94.3 nM | 69.7 nM | 88.4 nM |
| UAGGAGUGAUGUUCCAUAUCUUGAGCCGAAGGAGCGGCAUUAUAGCCAGGUAGGUCGCGGCAGAAGGUACCAGUGAUGUUGGAAA [Same State Arginine A GF5] | 182 nM | 160 nM | 206 nM | 202 nM | 173 nM |
| UAGGAGUGAUGUUCCUUUAGCAGGUAGGAAGGAGCGCCCAUUUGGGCAGGUAGGUCGCCUACUGGCCCUGAGUUAAACCUUAGGC [#11 K4 Arginine A Same State] | 149 nM | 181 nM | 150 nM | 207 nM | 127 nM |
| UAGUCCUAGUGAUGGUCAUCACGUGGUGGGCGAGGACCGGUACGGCCGCCACUCGACUUUGCAGUGAUGUUGCAAACCGGACAAU [Exclusion - Tryptophan A (Freestyle 19)] | 333 nM | 322 nM | 311 nM | 354 nM | 298 nM |
| UAUAUAUGAUGUGAUACCAGUGAAAAGCCAGUGAUGUUGGUAGAACUGGUAUAUAAAUGGCACCCUUGGCAGCACAAUCACGUAU [#28 K4 Theophylline B Exclusion] | 119 nM | 108 nM | 114 nM | 120 nM | 117 nM |
| UAUAUAUGAUGUGAUACCAGUGAAGAGCCAGUGAUGUUGGUAGAACUGGUAUAUAAAUAACACCCUUGGCAGCACAAUCACGUAU [whbob_Ex_Theo_B_sa97] | 160 nM | 152 nM | 170 nM | 212 nM | 164 nM |
| UAUGGCGAGGGCCGCAUAUCAUUAAACCAGAAGGAUAUAUGUUACUAUAGAAGGUCUGCCGCUGCGAGUGAUGUUUGGAGUGAUC [theeternabot_sameState_KL_FMN_A_3] | 326 nM | 195 nM | 260 nM | 242 nM | 229 nM |
| UAUUAAUUGUCAGGAUAUCGAAAUCGAGUGAUGUUCGUAUAUCGACGAUAGUCGAUAUUAUUUAUACGAGAAGGGACAUUAUUUA [JR_SSFMNB_Sub003] | 347 nM | 572 nM | 615 nM | 615 nM | 386 nM |
| UAUUCUGUUCGAAAGAACGGAAUUUCGGAAGGAGCGAGAGAAAUCUCAGGUAGGUCGCCGAAAUUAUUAGGUAGUGAUGUUACCU [Arginine A K4 5] | 126 nM | 116 nM | 142 nM | 124 nM | 123 nM |
| UCCGUUGCGGCGGCCGCCACUGACUUAUUGAUUAGGUUGCCAGUGAUGUUGGCCACCGGUCAAUACAGGACCGGGCCAUAGCGGG [Retive] | 160 nM | 208 nM | 259 nM | 148 nM | 110 nM |
| UCCUAGGCUCGAAAGAGCCUAGGAUUAACUCAGGAUAUCCGGAAACGGAGAAGGGAGUAACUAGUGAUGUUAGGGAUUCCCUAUU | 208 nM | 94 nM | 109 nM | 87.9 nM | 92.7 nM |
| UCCUAGGCUCGAAAGAGCCUAGGAUUUACUCAGGAUAUCCGGAAACGGAGAAGGGAGUAACUAGUGAUGUUAGGGAUUCCCUAUU | 552 nM | 113 nM | 123 nM | 131 nM | 125 nM |
| UCCUAGGCUCGAAAGAGCCUAGGUAAGACUCAGGAUAUCUGGAAACAGAGAAGGGAGCUACUAGUGAUGUUAGGAAUUCCCUAAG | 126 nM | 97 nM | 124 nM | 119 nM | 106 nM |
| UCCUGCAAUCGACCACGAAAGUGGAUCGAUACCAGAGUCGAAAGACUCCCUUGGCAGCGAGUGAUGUUCGAAGCAGGUAAAUAAA [#SwitchBubble 22 #K4Late] | 520 nM | 383 nM | 453 nM | 464 nM | 383 nM |
| UCCUGCAAUCUGCCACGAAAGUGGAUUGAUACCAGAGUCGAAAGACUCCCUUGGCAGCGAGUGAUGUUCGACGCAGGUAAAUAAA [MatMod 5 - Jieux - Exclusion - Theophylline A] | 142 nM | 224 nM | 178 nM | 234 nM | 135 nM |
